This passage reports amount of binding (mean fluorescence intensity) relative to control IgG pretreatment results from EP4793290A2.

The target of this assay is mouse PD-L1 (mouse) (UniProt Q9EP73). Description: flow cytometry on DOdKO-mPD-L1/mCD80 cells pretreated with 10 µg/ml TKMG48. For orientation: A flow cytometer gives signals particle by particle.
Chain of mouse PD-L1 (mouse) (Q9EP73 19-290 limits assumed): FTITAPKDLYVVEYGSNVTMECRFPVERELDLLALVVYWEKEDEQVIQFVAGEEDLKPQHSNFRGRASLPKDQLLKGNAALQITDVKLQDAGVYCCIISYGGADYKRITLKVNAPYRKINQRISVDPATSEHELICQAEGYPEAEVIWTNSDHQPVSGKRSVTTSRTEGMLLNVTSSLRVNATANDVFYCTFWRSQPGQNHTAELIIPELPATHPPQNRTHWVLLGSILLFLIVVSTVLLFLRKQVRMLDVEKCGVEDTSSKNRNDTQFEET

Chain of soluble mouse PD-1 extracellular region (PD-1-EC) protein (Q02242 other isoform, or with tags, fused parts or gaps): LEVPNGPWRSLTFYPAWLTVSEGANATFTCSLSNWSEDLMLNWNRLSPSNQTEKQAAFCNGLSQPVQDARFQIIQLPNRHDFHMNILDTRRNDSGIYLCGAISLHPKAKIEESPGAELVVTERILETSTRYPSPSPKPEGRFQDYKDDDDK

For the substance “soluble mouse PD-1 extracellular region (PD-1-EC) protein (from UniProt Q02242 25-167) (receptor)”, the amount of binding (mean fluorescence intensity) relative to control IgG pretreatment stood at 10.1 times.
